Measurements as given in the nanobody polyreactivity screen of Harvey et al. (2022).

Assay: yeast display, Sf9 membrane polyspecificity reagent, FACS + sequencing; frameworks hold sequencing errors
In short: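 In a synthetic yeast display library (Saccharomyces cerevisiae BJ5465), nanobody expression was induced with galactose for 36–48 hours. FACS gates were set low and high (top ~1%) using anti-HA fluorescence for expression and streptavidin fluorescence for binding of the Sf9 membrane reagent. Each polyreactivity label is drawn from the gate of origin.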

| Sequence | polyreactivity (PSR sort gate) |
| --- | --- |
| QVQLVESAGGLVQEGGRLRLSCAASGITLGAYAMGRYRQAPGKEREMVARIRIGGSKYYADSVKGRFTISRDNEKNTVYLQMNSLKPEDTAVYYCATRWQEYAGDYWGDYWGQGTHVTVSS | low polyreactivity |
| QVQLVESAGRLVQAGGSLRLSCAASGSTFYSYAMGWYRQAPGKEREFVAAITYSDGITYYADSVKGRFTISRDNAKNTVYLQMNSLKPEDTAVYYCAKAPIWGVTRKFDYWGQGNQVTVSS | high polyreactivity |
| QVQLVESAGRLVQAGGSLRLSCAPSGSIFSHNAMGWYRPAPGKERELVAAISRSGGSTYYADSVKGRFTISRDNAKNTVYLQMNSQKPEDTAVYYCNALGRISNHTLYDYWGQGTQVTVSS | low polyreactivity |
| QVQLVESAGVLVQAGGILRLSFAASGINFPYYAMGWYRKAPGKERELVAAISSSGGSSYYADSVKGRFTISRDNAKNTVYLKLNILKPEDTAVYYCAAHRYINYEYWGQGTQLTVSS | high polyreactivity |
| QVQLVESCGCLVQAVGSLRLSCAASGRIFGWYAMGWDRQAPVKERELVAAISSARRTYYADSVKGRFTISRDNAKNSVYLQMNSLKPEDTAVSYCAAYYYNDRMYYWGQGNQVTVSS | high polyreactivity |
| QVQLVESCGGLVQAGCSLRLSCAASGRIFSTNAMGWYRPAPGKERELVAAISSSGSRTYLADSVKGRFTISRDNAKNTVYLQMNSLKPEDTAVYFCNALRNYHHYEYDYWGQGTQVTVSS | high polyreactivity |
| QVQLVESCGGLVQAGGSHRLSCAASGRIFGVYVMGWYRQAPGKERELVAAISWSCSHTYYADSVKGRYTISRDNAKNTVYLQMNSLKPEDTAVYYCNADSYPDYTGPGLDWYDYWGHGTQVTVSS | low polyreactivity |
| QVQLVESCGGLVQAGGSLLLSCAASGGTFCDYAMVWYRQAPGKEREFVASITRSVSDTYYADSVKGRFTISRDNAKNTVYLQINSLKPEDTAVYYCKADRWYPWRSIMDYWGQGTQVSVSS | low polyreactivity |
| QVQLVESCGGLVQAGGSLRLSCAASGFIFSQNAMGWYIQAPGKEREIVAVISARGGRTYYADSVKGRFTISRDNAKNTVYLQMNSLKPEDTAVYDCARRDFWWSRRIFGYWGQGTQVTVSS | high polyreactivity |
| QVQLVESCGGLVQAGGSLRLSCAASGFTFPYYTMGWYRQAPGKERELVATITGGGSTNYADSVKGRFTISRDNAKNTVYLQKNSLKPEDTAVYYCAAKRWSGYGYYGWYDYWGQGTQVTVSS | high polyreactivity |
| QVQLVESCGGLVQAGGSLRLSCAASGFTFRNYVMGWYRQAPGKERELVAAISSTGGSTYYADSVKGRFTISRDNAKNTVYLQMNSLKPEDTAVYYCAARYVVQWPRYGFDYWGQGTQVTVSS | high polyreactivity |
| QVQLVESCGGLVQAGGSLRLSCAASGLIFRPNAMGWYRQAPAKERELVAAISGGGGSTYYADSVKGRFTISRDNAKNTVYLQMKSLKPEDTAVYYCNARKLVNRYPVIGVETYDYWGQGTQVTVSS | low polyreactivity |
| QVQLVESCGGLVQAGGSLRLSCAASGLTFYRYAMGWYRQAPGKERELVAAISSADRTYYADSVKGRFTISRDNAKNTVYLQMNSLKPEDTAVYYCAARANYFGWTKSYYYWGQGTQVNVSS | high polyreactivity |
| QVQLVESCGGLVQAGGSLRLSCAASGLTYRYYAMGWYRKAPGKERELVAAITSSGTSTYYADSVKGRFTISRDNAKNTVSLQMNSLKAEDTAVSYCAVRQSQKYGLFYYGGQGTQVTVSS | high polyreactivity |
| QVQLVESCGGLVQAGGSLRLSCAASGRNIWDYGMVWYRQAPGKERELVAVITWGGGSTYYADSVKGRFTISRDNAMNTVYLQMNSLKPEDSAVYYCAKEYHYYYWGQGTQVTVSS | low polyreactivity |
| QVQLVESCGGLVQAGGSLRLSCAASGRTFRYYAMGWYRQAPWKERELVAAIRRGGSTTYADSVKGRFTISRDNAKNTVYLQMNSLKPEDTAVYYCAARYPGTRGDGYWGQGTQVTVSS | high polyreactivity |

| Sequence | polyreactivity (PSR sort gate) |
| --- | --- |
| QVQLVESCGGLVQAGGSLRLSCAASGSIFAYYAMGWYRQAPGKERDLVAAISRGGGSTYYADSVTGRFTLSRDNAKNTVYLQMNSLKQEDTAVYYCDAYYAKGRAYDYDYWGQGTQVTVSS | high polyreactivity |
| QVQLVESCGGLVQAGGSLRLSCAASGSIFGWYAMGWYRQAPGKESELVAAISTSTGSTYYADSVKGRFTISRDNAKNTVYLQMNSLKPEDTAVYYCAVVVAGVFLWGVERYDYWGQGTQVTVSS | low polyreactivity |
| QVQLVESCGGLVQAGGSLRLSCAASGSTFRYNAMGWYRQAPGKERELVAAISWSGGSTYYADSVKGRFTISRDNAKNTVYLQMNSLKPEDTAVYYCAKVYFWGALSPDKFDEDYWGQGTQVTVSS | low polyreactivity |
| QVQLVESCGGLVQAGGSLRLSCAASGSTFYLNAMGWYRQAPGKERELVAAIDYRGGSTYYADSVKGRFTISRDYAKNTVYLQMNSLKPEDTAVYYCAKDRPGFLVGWGGGYDYWGQGTQVTVSS | low polyreactivity |
| QVQLVESCGGLVQAGGSLRLSCADSGLTMYGYARGWYRHAPGNERELVATLTRRGGSTYYADSVKGRFTISRDNAKNTVYLQMNSLKPEDPAVYYCAATYQHQNPQGVFSGGYYYWGQGTQVTVAS | high polyreactivity |
| QVQLVESCGGLVQAGGSLRLSCAPSGSTIPPNAMGWNRQAPRQERELVADSSDSSTSYADSVKGRFSISRDNAKNTVYLQMKSQKPEDTAVYYCAAADAGLRSKSYGQQYDYWGQGTQVTVSS | low polyreactivity |
| QVQLVESCGGLVQAGGSLRLTCAASGSTFNWYTMGWYRQAPGKDRELVAAMSRGTGSTYYADSVKGRFTMSRDNANNRVYVQMNSLKPEDTAVYSCAKQGYRYSSFLYDYWGQGTQVTVSS | low polyreactivity |
| QVQLVESCGGLVQAGGTLRLRCAASGFTFYPYSMGWYRQAPWKERELVAAITRGGITYYADSVKGRFTISRDYAKNTVYLQMKSLKPEDTAVYYCNAGWYVSYRWYRSDYWGQGTQVTVSS | high polyreactivity |
| QVQLVESCGGLVQAGSSLRLSCAASVITFYGYAMGWYRQAPGKERELVADITRGGSTNYADSVKGRFTISRDNAKNTVFLQMNSLKPEDSAVYYCAKSTRRFSWYYSTVGYNYWAQGTQVTVSS | high polyreactivity |
| QVQLVESCGGLVQEGGSLRLSCAASGRIFVVSAMGRYRQAPGKERELVAAISKRGGSTYYADSVKGRFTISRDNAKKTVYLQMNSLKPEDTAVYYCAKSRLVRGRSSYDYWGHGTQVTVSS | high polyreactivity |
| QVQLVESCVGLVQAGGSLRLSCAASRSTFDSYAMGWYRQAPGNEREMVASITSRGGRTYYADSVKGRFSISRDNAMNTVYLEMNSLKPEDTAVYYCNAYRRKYYYYQRHGFWGQGTQVTVSS | high polyreactivity |
| QVQLVESCVVLVQAAGSLRLSFAHSGSTFKVYAMGTYRQATGKERELVASISSGGSTNYADSVKGRFTISRDNAKNTVYLQMNSLKPEDTAVYYCALRRYTHRRYRFDYWGQGTQVTVSS | high polyreactivity |
| QVQLVESGAALVQAAGSLRLSCAASGSIFTPYAMGWYRQAPGKERELVAGIRSSGGRTYYADSVKGRFTISRDNAKNTVYLQMNSLKPEDTAVSYCAADQDWYGFVIGFDYWGQGTQVTVSS | low polyreactivity |
| QVQLVESGACLVKAGGSLRLSCAASGSSFYGYAMGWYRQAPGKERELVASITVSVGSTNADSVKGRFTISRDNAKNTVYLQMISLKPEDTAVYYCAAETVHSREQREGDYWGQGTQVSVSS | low polyreactivity |
| QVQLVESGACLVQAGGSLRLSFAASGSIFGWYTMGWYRPAPGKERELVAAISNSGTSSYYADSEKGRFTISRDTAKNTVYLQMNSLKPEDTAVYYCNAYSDLFGSYTDLGEYDYWVQGTQVTVSS | low polyreactivity |
